Test [1] addresses Trypanosoma brucei gambiense variant surface glycoprotein LiTat 1.3 (Lille Trypanozoon antigen type 1.3) (Trypanosoma brucei gambiense). Briefly: SEC-MALS; Agilent Bio SEC-3 column, PBS; samples at 0.5 mg/mL and 5 mg/mL, 50 uL injected.
Test [2] shares this target. The test is described as follows: SAXS; SEC-SAXS, Shodex KW404-4F column, 20 mM HEPES, 150 mM NaCl, 3% glycerol, pH 7.4; 50 uL at 15.51 mg/mL injected; curve from the first (major) elution peak.

The text below walks through data of paper PMC13480635.

In the case of “Trypanosoma brucei gambiense variant surface glycoprotein LiTat 1.3 (Lille Trypanozoon antigen type 1.3) (natural protein)”, the stoichiometry N in test [1] and in test [2] was 3 each time.
